The numbers were not newly measured in PMC7900953, “Location of a single histidine within peptide carriers increases mRNA delivery” (The Journal of Gene Medicine, 2020), which cites them from elsewhere.

Where no end group is shown, it is not given here.

This series deals with human cells. Particulars: cited from earlier work.

“H3k4b (KHHHKHHHKHHHKHHHK; also: four-branched lysine core)”: the “Cytotoxicity to human cells” value is given as “no observed cytotoxicity to human cells”.
